From patent US8795627B2, “Treatment of liver disorders by administration of RAP conjugates” (Raptor Pharmaceuticals Inc., priority 2007, dated 2014)
One block for each molecule: values may come before it.

Experiments:
[1] = biological target: CR pairs of the second ligand-binding domain of human LRP1; conditions: all pairs except CR9-CR10; read-out: affinity of adjacent CR pairs for RAP d3; cited from earlier work
LRP1 CR3-5 = LRP1 CR3-5 (Homo sapiens, UniProt Q07954); assay: Binding of RAP d3 / MegaRAP1 d3 variants to LRP1 CR3-5; conditions: in words
LRP1 CR3-5, sequence (Q07954 852-973 limits assumed): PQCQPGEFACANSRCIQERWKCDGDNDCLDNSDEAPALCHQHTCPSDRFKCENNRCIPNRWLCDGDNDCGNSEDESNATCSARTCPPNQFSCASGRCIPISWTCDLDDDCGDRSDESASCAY
From the text: FIG. 1A-B depict binding of RAP d3, MegaRAP1 d3 (RAPv2A d3) and intermediate sequence variants to LRP2 CR89 and LRP1 CR3-5. FIG. 1A illustrates binding of RAP d3 mutants and RAPv2A d3 revertants to LRP2 CR89. FIG. 1B illustrates binding of RAP d3 mutants and RAPv2A d3 revertants to LRP1 CR3-5. Data were plotted and fitted by non-linear regression with the assumption of a single binding site (GraphPad Prism). Kd values with standard deviations were derived from the regression analysis.
Percent of maximum binding is the ratio of the OD at the highest concentration tested for each ligand and the highest OD measured for all such ligands at that concentration.

B1: RAP d3: third domain (d3) of receptor-associated protein, amino acids 200-323 of mature RAP; row 'RAP' of Table 2 (protein, listed as Homo sapiens)
chain: LDRLRRVSHQGYSTEAEFEEPRVIDLWDLAQSANLTDKELEAFREELKHFEAKIEKHNHYQKQLEIAHEKLRHAESVGDGERVSRSREKHALLEGRTKELGYTVKKHLQDLSGRISRARHNEL
- Kd [1]: 1 to 5 nM

- binding to LRP1 CR domains (LRP1 CR3-5): fails to bind LRP1 CR domains
B2: MegaRAP1: RAPd3 variant; Table 2 positions 213 T, 217 K, 249 Y, 251 K, 256 A, 270 E (protein)
chain: GLDRLRRVSHQGYTTEAKFEEPRVIDLWDLAQSANLTDKELEAFREELKYFKAKIEAHNHYQKQLEIAHEELRHAESVGDGERVSRSREKHALLEGRTKELGYTVKKHLQDLSGRISRARHNEL
